In article PMC4031664 (Prion, 2013):

Target: T1, tandem OR repeats of mouse PrP (Mus musculus)
T1 chain: PHGGSWGQPHGGSWGQ
Assay: crystal structure

B1: Fab fragment of the monoclonal POM2 IgG (Fab, V domains shown)
VH: VKLQESGGEVVRPGTSVKVSCKASGYAFTNYLIEWVKQRPGQGLEWIGVINPGSGDTNYNEKFKGKATLTADKSSSTAYMQLNSLTSDDSAVYFCARSGAAAPTYYAMDYWGQGVSVTVSS
VL: DIVMTQSHKFMSTSVGDRVSITCKASQVGTALAWYQQKPGQSPKLLIYWASTRHTGVPDRFTGSGSGTDFTLTISNVQSEDLSDYFCQQYSSYPTFGGGTKLEIK
  binding result: binds
